Results from patent US8450280B2, “Activation of peptide prodrugs by hK2” (GenbSpera, Inc., priority 1999, dated 2013).

Biological target: T1, hK2 (Homo sapiens, UniProt P20151)
T1 construct: made in house
Assay: Inhibition of hK2 by protease inhibitors (substrate H-Pro-Phe-Arg-AMC)
Format: biochemical
Conditions: for Activity (%) of hK2, percentage of inhibitor-free control: 10 minutes of incubation, 8.3 nM hK2, 90 μM substrate
Description: Activity of hK2 (1.6 pmol) was monitored using the substrate H-Pro-Phe-Arg-AMC (SEQ ID NO: 55) (90 μM). Inhibitors, at commonly used concentrations, and hK2 (8.3 nM) were mixed and proteolysis of 90 μM H-Pro-Phe-Arg-AMC (SEQ ID NO: 55) was followed up to 20 minutes, starting directly or 10 minutes after mixing the enzyme with various inhibitors. Inhibition was evaluated by comparison with […] controls.
The proteolytic activity is expressed in percentage of inhibitor-free control after 10 minutes of incubation.
Therefore, PPACK can be used to obtain fast irreversible inhibition of hK2.

T1 sequence (P20151 25-261): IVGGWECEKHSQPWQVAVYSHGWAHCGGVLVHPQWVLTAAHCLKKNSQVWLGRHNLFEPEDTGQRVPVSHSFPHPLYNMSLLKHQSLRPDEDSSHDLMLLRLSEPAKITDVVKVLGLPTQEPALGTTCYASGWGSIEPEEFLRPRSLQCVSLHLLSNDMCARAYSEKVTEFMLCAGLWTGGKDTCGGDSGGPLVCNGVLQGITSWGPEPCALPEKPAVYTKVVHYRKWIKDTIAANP

Molecule	Activity (%) of hK2, percentage of inhibitor-free control (inhibitor 0.016 μM) [%]	Activity (%) of hK2, percentage of inhibitor-free control (inhibitor 0.08 μM) [%]	inhibition of the hK2 activity (in words) (100-fold molar excess, 20 minute measurement time)	Activity (%) of hK2, percentage of inhibitor-free control (inhibitor 0.8 μM) [%]	inhibition of hK2 (in words) (8 nM hK2, 90 μM substrate)	Activity (%) of hK2, percentage of inhibitor-free control (inhibitor 4 μM) [%]
PCl: protein C inhibitor (PCI), plasma protease inhibitor (serpin) (protein) HRHHPREMKKRVEDLHVGATVAPSSRRDFTFDLYRALASAAPSQSIFFSPVSISMSLAMLSLGAGSSTKMQILEGLGLNLQKSSEKELHRGFQQLLQELNQPRDGFQLSLGNALFTDLVVDLQDTFVSAMKTLYLADTFPTNFRDSAGAMKQINDYVAKQTKGKIVDLLKNLDSNAVVIMVNYIFFKAKWETSFNHKGTQEQDFYVTSETVVRVPMMSREDQYHYLLDRNLSCRVVGVPYQGNATALFILPSEGKMQQVENGLSEKTLRKWLKMFKKRQLELYLPKFSIEGSYQLEKVLPSLGISNVFTSHADLSGISNHSNIQVSEMVHKAVVEVDESGTRAAAATGTIFTFRSARLNSQRLVFNRPFLMFIVDNNILFLGKVNRP	50	0				
ACT: α1-antichymotrypsin purified from human blood plasma (protein) HPNSPLDEENLTQENQDRGTHVDLGLASANVDFAFSLYKQLVLKAPDKNVIFSPLSISTALAFLSLGAHNTTLTEILKGLKFNLTETSEAEIHQSFQHLLRTLNQSSDELQLSMGNAMFVKEQLSLLDRFTEDAKRLYGSEAFATDFQDSAAAKKLINDYVKNGTRGKITDLIKDLDSQTMMVLVNYIFFKAKWEMPFDPQDTHQSRFYLSKKKWVMVPMMSLHHLTIPYFRDEELSCTVVELKYTGNASALFILPDQDKMEEVEAMLLPETLKRWRDSLEFREIGELYLPKFSISRDYNLNDILLQLGIEEAFTSKADLSGITGARNLAVSQVVHKAVLDVFEEGTEASAATAVKITLLSALVETRTIVRFNRPFLMIIVPTDTQNIFFMSKVTNPKQA			no inhibition	100		
SLPI: protease inhibitor present in the prostate (protein) SGKSFKAGVCPPKKSAQCLRYKKPECQSDWQCPGKKRCCPDTCGIKCLDPVDTPNPTRRKPGKCPVTYGQCLMLNPPNFCEMDGQCKRDLKCCMGMCGKSCVSPVKA		92			inhibited hK2 weakly	35
